The star is where a group is joined. Palmitoyl = CCCCCCCCCCCCCCCC(=O)*
Molecular target: T1, human PAR1 (thrombin receptor) on human platelets (human, UniProt P25116 42-425)
T1 sequence (looked up): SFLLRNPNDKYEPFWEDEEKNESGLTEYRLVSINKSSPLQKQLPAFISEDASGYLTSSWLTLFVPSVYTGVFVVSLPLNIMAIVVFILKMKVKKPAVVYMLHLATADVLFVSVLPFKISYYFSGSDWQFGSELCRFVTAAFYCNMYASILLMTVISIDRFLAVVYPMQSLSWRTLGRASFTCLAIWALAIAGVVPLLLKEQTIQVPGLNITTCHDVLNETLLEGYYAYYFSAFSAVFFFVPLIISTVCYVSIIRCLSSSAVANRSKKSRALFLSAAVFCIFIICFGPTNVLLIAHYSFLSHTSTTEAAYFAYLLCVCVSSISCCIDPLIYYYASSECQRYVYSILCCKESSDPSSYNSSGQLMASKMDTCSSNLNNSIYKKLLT
Assay: cell-based or functional assay

B1: PZ-128 (palmitate-KKSRALF-NH2) (peptide)
peptide: Palmitoyl-KKSRALF-NH2
modifications: also: acetate salt
  right shift of thrombin-induced aggregation of human platelets: 5 fold
